Assay [1] has as its target T1, His6–Scs2(1–127) (Schizosaccharomyces pombe (strain 972 / …, UniProt O60119)).
T1 chain: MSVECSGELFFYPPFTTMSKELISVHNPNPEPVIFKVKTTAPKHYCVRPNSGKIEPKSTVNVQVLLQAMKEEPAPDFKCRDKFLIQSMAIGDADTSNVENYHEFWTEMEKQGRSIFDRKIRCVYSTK
The assay is described as follows: pull-down (bead-bound His6-Scs2, Coomassie SDS-PAGE).

Assay [2] concerns the target T2, His6–Scs2(1–127) (S. pombe, UniProt O60119 1-127).
T2 construct: Scs2 (VAMP-associated protein, VAP), S. pombe, residues 1-127 (MSP domain), amplified from genomic DNA and cloned into pET15b; Cloned into the NdeI and BamHI sites of pET15b; also called Scs2 MSP domain; His-tagged version of the Scs2 MSP domain
T2 sequence (looked up): T1 chain
Briefly: pull-down; bead-bound His6–Scs2(1–127) (2–3 µg) incubated with 10 µg GST or GST–Duc1(351–380) in 500 µl 20 mM Tris-HCl pH 7.4, 150 mM NaCl, 0.1% NP-40, 30 min at 4°C; three washes; SDS-PAGE, Coomassie blue. The conditions noted are these: both partners purified.

This is an account of results in article PMC11449445, “Fission yeast Duc1 links to ER–PM contact sites and influences PM lipid composition and cytokinetic ring anchoring” (Journal of Cell Science, 2024).

B1: GST–Duc1(351–380) (domain or fragment, S. pombe, UniProt O74504 351-380, looked up)
chain: GKDVYKHGISNVPDDENEDDLQRYFTALEM
In the case of B1, the binding result in assay [1] and in assay [2] was “binds” in each case.
